The series is described as follows: soluble on expression in E. coli; label from the status in PepcDB or PDB records.
In the case of “MSRSKKSRKPGTNSNDQLVVVRTRSESELESRLRKKLKKRKGLKSGSRHSEGSESQVRQAAQKRDPRLGSKKPIPLIVAEPKKLNKQERKLAAEQELAMLEKDAQLNVLLDRLDNGEKLGIGLQKYVDEKLDRIEVLMEQLGLLDDEPEPAPAPQSKPTKKRKTEDDLLSEFEQLDVDKYQD”, the “soluble on expression in E. coli” value is reported as “not soluble”.

Take “MGSSHHHHHHSSGLVPRGSHMLELRLVQGSLLKKVLESIKDLVNDANFDCSSTGFSLQAMDSSHVALVSLLLRSEGFEHYRCDRNLSMGMNLGNMSKMLKCAGNDDIITIKADDGGDTVTFMFESPTQDKIADFEMKLMDIDSEHLGIPDAEYHSIVRMPSNEFSRICKDLSSIGDTVVISVTKEGVKFSTAGDIGTANIVLRQNTTVDKPEDAIVIEMKEPVSLSFALRYMNSFTKATPLSDTVTISLSSELPVVVEYKVAEMGYIRYYLAPKIE”: the “soluble on expression in E. coli” value is on record as “soluble”. For the sequence “MGSDKIHHHHHHMELVVDAHELKEWVYLLDKLVGTTEPTARFLSFFYRDGLWVSASDNCAKVEIFLGEIPRFEGSRIVSLDLVKYFLSDVKVSDVRITVLQERLVLKAGNEVLDVRCKTGEIPPGDGEEEFLCTLTKREFEGALNFASSNLDEGEFLILLFEEKDVLMFGASAGIMTLAQISTIPKKPFSTKIPYVTVRHIFKAFQRLDVQTLDFYEKSGKLVVKYPHFVMEVCGDEVSEEEIKKLKSLLEEKTAERIEARRQVLAKLVRKAAVLSRGDYATISRRGENLKVQVKRKNLSYTAELFVESGRDFVVVFPSKKLRSALARMDTERIFLEITERFLKISNFSGTRVIYLELEEFF”, the “soluble on expression in E. coli” value is given as “not soluble”.

In the case of “MTSVNLSYPIGEYKPRESISKEQKDKWIQVLEEVPAKLKQAVEVMTDSQLDTPYRDGGWTVRQVVHHLADSHMNSYIRFKLSLTEETPAIRPYDEKAWSELKDSKTADPSGSLALLQELHGRWTALLRTLTDQQFKRGFYHPDTKEIITLENALGLYVWHSHHHIAHITELSRRMGWS”, the “soluble on expression in E. coli” value is listed as “soluble”. “MSDGFSVDPAELEGFAGVAEGHAGTAGQIKGLVDRADVGDKSWGVVGLFVKSTYTGMLGDLKELFGDLEEGLRGVGERFRATAEDYRGPEEAIQRAFDGIDTGSGGR”: the “soluble on expression in E. coli” value is reported as “not soluble”. In the case of “MTSSNEKLPKINHDNEVFALLYKILSSEVQTIKGEDNEKVNQLRVDITISEISQLTDKMKKAFLEQPALLEISNEPITVVADMHGQSIHLLRIFLTNEAPPNQKYLFLGDYVDRGSQSVVVMCLLFCMKHRYPQHVFLLRGNHEDVNTTLNYGFYDECLEQWKNDEGEKVWRMFIDTFNCMPLAAVIGGKVFCAHGGISPWLESLEDINSIERPLVVPPYGLACDLLWSDPAQPERNGWGLSHRGISFTYGKSVVEEFCAKNDIALVIRGHQLFKEMYPQGCVLRFGGRLISLFSALNYEGHKNNSSVLKLEFVGQRVKVKQVLYRCRHYAPLRSNEYLGFRDMKSSSGKNEKRKKGRLESLLG” it was “not soluble”; in that of “VADEYKWALASIYETDDEWEAAFEDVQAELDALNDYEGRLTEDGETLLAALELRDAVYRDAKTVSAYASMRSDEDTRDQEYQALQARGASLMTDVSSATSFFDPELQACTREQLQSMIEETPELAAYEHYFDDVLRMKPHTRSAEVEGLLSELGEVFGAPSDAYNMLTDADLEFPTVEDPAGDAVEISQSN”, “soluble”. With “MGSDKIHHHHHHILVKNKIDNEFNWISMKEEQKLNVPIENQMPDLPNGCEVTSLSMLMNYYGIRVTKNELAQNIQHVSSFTNNGKYRGNPNQGFVGYMSIENAGWCVYNGPLYNVARKYTNRIQNATGSDFLSILKLVSDGHPVLIITTTTFNRVNNMQTWETNTGKVNVTPSSHACVITGYDKKKRIVYLNNPYGIKNQAVNWNNLENSYNQQGKQALYIK” the entry was “not soluble”; with “ASNITRINEIIEIAVNNKRKVCLLGKSMDVNVNISRKIGLMDIDSNDIVEVRDIKNYPDRSILILCTGSQGEDSAALNTMARGKHNWVSLKSTDTIIMSSNPIPGNYAAVENLLNELSKYGVTIFENSPNMKLHASGHATQQELQLMLNLVFPRYLIPIHGEYKMMRTIKNIAQECGINGDDVGLLANGQVMYLIDGKLYYSGEVINADPIYIESRNSSPDLARVIKQRQILSREGMFAVIVVFDKNNNILGMPTLITRGCFFALDSSPLMTKITHSIKRGLENVIQNKRFNTREQMIKELKRVCKETVSYFIWKNKSRNPLISTVLSWV”, “soluble”.

Take “NFMLNQPHSVSESPGKTVTISCTRSSGNIDSNYVQWYQQRPGSAPITVIYEDNQRPSGVPDRFAGSIDRSSNSASLTISGLKTEDEADYYCQSYDARNVVFGGGTRLTVLG”: the “soluble on expression in E. coli” value was “soluble”. In the case of “MSLNPVDRPLLDIGLTRLEFLRISGKGLAGLTIAPALLSLLGCKQEDIDSGTVGLINTPKGVLVTQRARCTGCHRCEISCTNFNDGSVGTFFSRIKIHRNYFFGDNGVGSGGGLYGDLNYTADTCRQCKEPQCMNVCPIGAITWQQKEGCITVDHKRCIGCSACTTACPWMMATVNTESKKSSKCVLCGECANACPTGALKIIEWKDITEGHHHHHH” it was “not soluble”; in that of “MTEDNIAPITSVKRLVTDKCTYKDNELLTKYSYENAVVTKTASGRFDVTPTVQDYVFKLDFEKKPEKLGIMLIGLGGNNGSTLVASVLANKHNVEFQTKAKGVKQPNYFGSMTQCSTLKLGIDAEGNDVYAPFNSLLPMVSPKHFVVSGWDINNADLYEAMQRSQVLEYDLQQRLKAKMSLVKPLPSIYYPDFIAANQDERANQCINLDEKGNVTTRGKWTHLQRIRRDIQNFKEENALDKVIVLWTANTERYVEVSPGVNDTMENLLQSIKNDHEEIAPSTIFAAASILEGVPYINGSPQNTFVPGLVQLAEHEGTFIAGDDLKSGQTKLKSVLAQFLVDAGIKPVSIASYNHLGNNDGYNLSAPKQFRSKEISKSSVIDDIIASNDILYNDKLGKKVDHCIVIKYMKPVGDSKVAMDEYYSELMLGGHNRISIHNVCEDSLLATALIIDLLVMTEFCTRVSYKKVDPVKEDAGKFENFYPVLTFLSYWLKAPLTRPGFHPVNGLNKQRTALENFLRLLIGLPSQNELRFEERLL”, “soluble”.

As to “MAAAENRVQQVKGILTMAINNGTLWQVIDMRNNERLNCVDMAVRAGSETCAMLITKVAREYAKHRPRSEVEKKFDSMPTTEEDVTISLGPKTADTFDDNYVKELVRQSESASGHAVATKKLSREKISNSLAKGNVAAVQGREYLKMVKRSSSAHSRLMSQRTFSVESGSIDSSEPSTPQLTSPPADHGVFSSVGEKIRNIFGKKPPLHTKSLSVVQTDRIAAPAVRSSSISNKPLSYQTSGNSNEEDHLRLPQHSSSSESPPSEGPSNSGLFRWSSKDKPMTSTVSTANGVRLPPLSLRRRTNSDPKNRDFTSLGGDE”, the “soluble on expression in E. coli” value is given as “not soluble”. In the case of “MKLVTGFARIRKPSRPIEFGRWPNRSMSVRVPGAMPLASMNLAVGQSVRIGQRPNSSPSSLPNISFAKIRRWPSRRWLRHQGLHGPIDFGRWPNETMSIRVPGAMPLASMKLAVGQSTALAKGQTQHSQRATPLVLQRTTHTLANGQMQPIITPKRIVHQTRSHIVGGSRDIRLGMSLPGDAPAGSRCRQRRFHDALGRPKRSRTLVANRTCPGWDVASSQTWTSPAWPSPQSPSPDGFGSCQTNKDLTSRGCGG” it was “not soluble”; in that of “MGSDKIHHHHHHGGFTGAIADFPTAIHRAVKGQMQTTTDYLNGEQTEYDESVFTGEYHYYYEKLSDDDKLIYRQIYAMMQKRMDGISLNTTDTDNVSRIQQFVLLDNPQFFYIEKSQYTVRNSIIFSPVYNMSESDIDNAISTISGYVSACMAGIDEGASDYDKAVHFYEYVIEHAEYEENSPHNQDMYSAVLGRTVCQGYAMMFKYLCDRAGISSLIVTGTTSDANHAWNMVYLDGAWCAVDCTYGDGDYLGKGISYSWFGVPLDVVKLTRTLDNEDMLPQEASVEDDYYYRNGLYFTSYDLKVLQGMTTSSNYITFKFSDRETYDTACHSLFDKGDYKYLIPTARGGTITYMQEPNSLAVFIHIELGS”, “not soluble”. “MGSDKIHHHHHHMMSEEKILSVDFTQEDAYTEILPRSPLVSSYHAQWQGLRLDVHQQPGHETPEHSPQQHVLTVSLEQQIVRSERILDGRLQYENIAKGDVAIIPAQTRHISRWQSEAKFLVLSMEPAFFTRMVIEAGDLQKIEIKPRFAAPDPLIQQIGLALQTELESEHKGSSIYIESLTTTLCIHLLKHYCVTGGTILDDHHHKGLSHWKLRQAISYIHENLDQDLTLVDISTAVGMSMYYFSRQFKQSTGFAPHQYVMNCRIERAKKLLGSTNKTIEQICTQVGFQSQSHFTNVFRKLMGITPRVYREQVKT”: the “soluble on expression in E. coli” value is listed as “not soluble”. On to “MRGSPRTKDRLAALKAAVSDEEDVEEVAVQVDSGGGFMEEFFEQVEEIRAMIDKISDNVDAVKKKHSDILSAPQTDDQMKEELEELMTDIKRTANKVRGKLKTIELNIEQEEHSNKSSADLRIRKTQYSTISRKFVEVMSDYNTTQIDYRDRCKARIKRQMEITGRTTTNEELEDMLESG”, for which the “soluble on expression in E. coli” value is “soluble”.

In the case of “MSRLRSTPIPGTRDSYTQVDFNLGFHVRHYDVSLDYVVAPNRLKAVVTLSMDTYQPLRSLTLDLSDALTVKSVTAQGTSAVAVRVQKFRHRNHKLRISFTEEIPVDQEFKITVTYSGNPRPIRSTWGLIGWEELSNGSLVASQPNGARSWLPCDDTPDEK”, the “soluble on expression in E. coli” value is on record as “not soluble”. Turning to “MGSDKIHHHHHHMNGQPLIQVSDFEGPLDLLLHLIKTNEMDIYDIRISTITSQYLTYLHQMQLVRLDVAGEYFVMAANLMAIKAKLLLPKPQSVVPVDEDEPADPREELVNQLLEYQRYKQAAQALKQRALERQQHFTRPAMAVPESVELTVAPGIKPVDLQTALVRLMQRATLAKPVTQSVHQEHFTIKRQMTTILQRLKGTTAPVAFEQLLVTHPVMEEVVTTFLAVLELARQRQVQLQQAGRLAPLQVNFLQMEGRFSTDVTSSTD”, the “soluble on expression in E. coli” value was “not soluble”. With “ALQNKEEEKKKVKKLQKSYFDVLGICCTSEVPIIENILKSLDGVKEYSVIVPSRTVIVVHDSLLISPFQIAKALNEARLEANVRVNGETSFKNKW” the entry was “soluble”; with “MGSDKIHHHHHHMNIQDLRYFHELVNLKSYTKTAEKFGVSQPTITAAVKRLENRFGGTFLIRDQPHKSIIITRLGVQFDEHVQSILNEINIVEEEIKQNQNASIPFGLPPIIGRNYFPKIVSQLFAKGLLHRLNVIENGSYDLYHLLLEGYINFSMLGLTKVNVEPGIKLEVVKSYPMCIVVSKTHPLATKKAISFKEIANENFIGLSSDYIHTKALDRMLKKSKINLNTIYRSPDVTVVKNIVAQNLGISYLTTLSITENDDVISIPLLDKDQPKFILAAATRENHIMTDAEEEFWEILTQISLRRQVLTSTLPS”, “not soluble”.

(Values after the DeepSol protein solubility set.)
